From patent US20210108176A1 (IMPERIAL COLLEGE INNOVATIONS, published 2021)

Target: T1, EZH2 (UniProt Q15910 1-746, limits assumed)
T1 construct: Endogenous protein immunoprecipitated from U266 cell chromatin; also called polycomb complex methyl-transferase EZH2
Test: ChIP-reChIP qPCR in U266 cells (IP against RARalpha, then EZH2)
Procedure: Chromatin immunoprecipitation (ChIP) combined with real-time quantitative polymerase chain reaction (ChIP-RQ-PCR) was performed for anti-H3K4me3, anti-H3K27me3, anti-RNA polymerase II CTD phospho Ser2, anti-RNA polymerase II CTD phospho Ser5, anti-EZH2, anti-RARα and control IgG as previously described²⁵. For Re-ChIP assays, the wash and chromatin elution steps of the first IP were performed with protease inhibitor-containing buffers and the first elution was performed by incubating the magnetic beads in 10 mM DTT/TE for 30 min at 37° C. The eluate of the first IP was diluted at least 20× in ChIP dilution buffer, followed by a second IP according to the same protocol as above. Expression of immunoprecipitated DNA was calculated, either relative to input DNA or DNA immunoprecipitated by control IgG antibody, using the ΔΔCT method.

T1 sequence (Q15910 whole entry): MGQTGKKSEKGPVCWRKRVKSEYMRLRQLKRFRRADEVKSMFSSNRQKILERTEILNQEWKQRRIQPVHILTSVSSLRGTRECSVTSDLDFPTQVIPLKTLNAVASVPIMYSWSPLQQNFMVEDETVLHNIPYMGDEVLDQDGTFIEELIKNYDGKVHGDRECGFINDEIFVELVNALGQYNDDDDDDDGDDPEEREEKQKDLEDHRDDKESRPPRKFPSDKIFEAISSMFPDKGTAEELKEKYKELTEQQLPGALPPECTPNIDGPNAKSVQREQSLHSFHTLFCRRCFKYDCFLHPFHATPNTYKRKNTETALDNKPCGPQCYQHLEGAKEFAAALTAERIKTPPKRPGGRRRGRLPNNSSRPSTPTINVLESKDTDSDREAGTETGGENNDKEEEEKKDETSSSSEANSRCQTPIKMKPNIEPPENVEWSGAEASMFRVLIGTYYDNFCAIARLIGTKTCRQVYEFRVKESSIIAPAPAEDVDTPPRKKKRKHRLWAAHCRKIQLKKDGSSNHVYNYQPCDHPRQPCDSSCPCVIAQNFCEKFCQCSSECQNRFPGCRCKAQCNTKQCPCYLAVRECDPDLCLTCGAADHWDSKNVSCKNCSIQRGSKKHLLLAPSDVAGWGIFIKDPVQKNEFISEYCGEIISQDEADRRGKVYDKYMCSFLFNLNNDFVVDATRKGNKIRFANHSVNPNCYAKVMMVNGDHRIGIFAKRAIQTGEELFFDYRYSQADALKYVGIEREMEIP

binding result: binds
B1: RARalpha (receptor, UniProt P10276 1-462, looked up)
chain: MASNSSSCPTPGGGHLNGYPVPPYAFFFPPMLGGLSPPGALTTLQHQLPVSGYSTPSPATIETQSSSSEEIVPSPPSPPPLPRIYKPCFVCQDKSSGYHYGVSACEGCKGFFRRSIQKNMVYTCHRDKNCIINKVTRNRCQYCRLQKCFEVGMSKESVRNDRNKKKKEVPKPECSESYTLTPEVGELIEKVRKAHQETFPALCQLGKYTTNNSSEQRVSLDIDLWDKFSELSTKCIIKTVEFAKQLPGFTTLTIADQITLLKAACLDILILRICTRYTPEQDTMTFSDGLTLNRTQMHNAGFGPLTDLVFAFANQLLPLEMDDAETGLLSAICLICGDRQDLEQPDRVDMLQEPLLEALKVYVRKRRPSRPHMFPKMLMKITDLRSISAKGAERVITLKMEIPGSMPPLIQEMLENSEGLDTLSGQPGGGGRDGGGLAPPPGSCSPSLSPSSNRSSPATHSP
notes: Endogenous protein immunoprecipitated from U266 cell chromatin
